We go through one molecule from patent US20230331852A1 (OSE IMMUNOTHERAPEUTICS, published 2023).

Experiment [1] addresses T1, recombinant human CLEC-1 protein with His Tag (#1704-CL R&D Systems) (human, UniProt Q8NC01 74-280).
T1 construct: Bought protein; also called His-CLEC1; His Clec-1; not shown: His tag
T1 sequence: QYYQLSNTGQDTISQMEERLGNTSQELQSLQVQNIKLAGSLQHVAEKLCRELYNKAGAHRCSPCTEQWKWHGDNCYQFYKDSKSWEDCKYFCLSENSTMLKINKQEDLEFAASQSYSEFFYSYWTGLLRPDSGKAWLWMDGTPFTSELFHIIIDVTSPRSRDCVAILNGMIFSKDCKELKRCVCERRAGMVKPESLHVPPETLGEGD
As to the kind of experiment: Blitz biolayer interferometry, His-CLEC1 on Ni-NTA biosensor, antibody at 20 ug/mL.

Experiment [2] concerns the target T2, Fc-CLEC1 labelled with Alexa Fluor 488 (human, Alexa Fluor 488 label (sites not given)).
T2 construct: also called Fc-CLEC1-A488; Alexa488-Fc-Clec-1
T2 chain: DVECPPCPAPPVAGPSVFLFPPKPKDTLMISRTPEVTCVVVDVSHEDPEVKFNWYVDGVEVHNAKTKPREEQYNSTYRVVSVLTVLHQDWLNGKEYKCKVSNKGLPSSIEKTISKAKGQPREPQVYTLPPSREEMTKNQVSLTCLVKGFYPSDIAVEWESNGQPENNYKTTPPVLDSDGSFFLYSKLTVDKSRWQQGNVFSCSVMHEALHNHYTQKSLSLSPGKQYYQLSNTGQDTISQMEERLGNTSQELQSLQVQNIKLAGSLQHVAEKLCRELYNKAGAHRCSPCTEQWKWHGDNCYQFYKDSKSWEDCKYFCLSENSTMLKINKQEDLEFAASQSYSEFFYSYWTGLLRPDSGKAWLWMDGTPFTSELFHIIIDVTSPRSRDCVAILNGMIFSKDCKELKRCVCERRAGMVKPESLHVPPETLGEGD
As to the kind of experiment: FACS competition: blocks Fc-CLEC1-A488 (10 nM) binding to CLEC-1 ligand on UV-treated PBMC; % binding. As for the experimental part: Competition were also measured on UV pre-treated pro-apoptotic human PBMCs, which can also express the ligand after a treatment under UV radiation for 18 hours. After UV treatment, cells were first washed in cold-PSE and then blocked during 30 min at room temperature with human Fc-block 50-fold diluted in PSE, and then replaced on ice. Purified anti-Clec antibodies at different concentrations were pre-incubated with Alexa488-Fc-Clec-1 in PSE at different concentrations for 15 min at room temperature. Pre-incubated mixes were then incubated on Fc-blocked/SAB (#34005-100, Invitrogen, Illkirch, France) pro-apoptotic PBMCs for 30 min on ice. Binding on cells were then fixed by PFA 2% in cold PBS for 10 min on ice and analyzed on CytoFlex cytofluorometer (Beckman Coulter France, Villepinte).
(§1) Methods. To measure competition on permeabilised Raji (CytoFix/cytoperm kit, BD Biosciences) which expressed CLEC1 ligand, Fc-CLEC1-labelled A488 which bound specifically to permeabilised Raji was used. To measure competition, Fc-CLEC1 labelled A488 at 10 nM or 20 nM was mixed with mouse anti-hCLEC1 at different concentrations for 15 min at RT then added on these cells for 30 min at 4° C. […] To measure competition on PMBC, we used human PBMC pre-treated by UV for 18 h to obtain apoptotic PBMC, which expressed CLEC1 ligand. Fc-CLEC1-labelled A488 bound specifically apoptotic UV-treated PBMC. To measure competition, Fc-CLEC1 labelled A488 at 10 nM was mixed with mouse anti-hCLEC1 at different concentrations for 15 min at RT then added on these cells for 30 min at 4° C.

Experiment [3] addresses T3, human CLEC-1A expressed on the cell membrane (human, UniProt Q8NC01 1-280).
T3 construct: Endogenous on human U266 myeloma cells, on monocyte-derived TGFb-DC and macrophages; on CHO cells after transduction with a Clec-1 expressing lentivirus; also called U266 CLEC1; CLEC-1A on U266 cells
T3 sequence: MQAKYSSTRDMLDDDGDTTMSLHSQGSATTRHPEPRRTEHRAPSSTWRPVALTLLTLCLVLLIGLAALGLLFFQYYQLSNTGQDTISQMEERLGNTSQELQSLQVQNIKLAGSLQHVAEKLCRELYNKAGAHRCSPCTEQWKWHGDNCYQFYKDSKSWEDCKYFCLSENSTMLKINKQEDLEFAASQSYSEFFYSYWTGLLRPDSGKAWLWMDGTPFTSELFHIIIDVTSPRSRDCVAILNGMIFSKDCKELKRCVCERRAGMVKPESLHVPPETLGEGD
As to the kind of experiment: flow cytometry on CHO-Clec-1 cells (from FIGURE 21). As for the experimental part:
To measure binding of anti-clec on CHO-Clec-1 cells, human Fc Receptor Binding Inhibitor diluted at 1/200 (BD pharmingen; USA; reference 564220) was first added for 30 min at room-temperature to block human Fc receptors on CHO-Clec-1 cells to reduce background. Then, antibodies were incubated for 30 min at 4° C., and washed before stained 15 min at 4° C. with PE-labelled anti-human IgG Fc (Biolegend; USA; reference 409303). Samples were analyzed on citoflex (Beckman coulter)
On the technique in general: In flow cytometry, cells or beads pass a laser one at a time.

Experiment [4] has as its target T2, Fc-CLEC1 labelled with Alexa Fluor 488. The experiment is described as follows: FACS competition: blocks Fc-CLEC1-A488 (10 nM) binding to CLEC-1 ligand on permeabilised Raji cells; IC50 median. How it is done:
To measure competition, purified anti-Clec antibodies at different concentrations were pre-incubated in Perm Wash Buffer with Alexa488-Fc-Clec-1 for 15 min at room temperature. Pre-incubated mixes were then incubated on permeabilized and Fc-blocked Raji cells for 30 min on ice. Binding on cells were then fixed by PFA 2% in cold PBS for 10 min on ice and analyzed on CytoFlex cytofluorometer (Beckman Coulter France, Villepinte).
as §1

For experiment [5], the target named is T3, human CLEC-1A expressed on the cell …. As to the kind of experiment: flow cytometry on U266 cells, PE anti-human IgG; % positive cells. As for the experimental part:
Method: To measure binding of anti-CLEC1 on human U266 cell lines (pre-blocked with Fcblock to blocking FcR), antibodies at different concentrations were incubated for 30 min at 4° C., and washed before stained 30 min at 4° C. with PE-labelled anti-human IgG (Biolegend; reference 409304). Samples were analyzed on Cytoflex cytofluorometer (Beckman Coulter). The MFI of anti-CLEC1 was compared between all anti-CLEC1 antibodies and percentage of stained cells was analysed in all conditions.

B1: chimeric anti-CLEC-1A antibody 14H9 (antibody, human IgG4 S228P, kappa, V domains shown)
VH: QVQLKESGPGLVAPSQSLSITCTISGFSLTTYGIHWVRQPPGKGLEWLVVIWSDGSTIYNSALKSRLSISKDNSKSQVFLKMNSLQTDDTAIYYCARHGGYYNYFDYWGQGTTLTVSS
VL: DIQMNQSPSSLSASLGDTITITCHASQNINVWLSWYQQKPGNIPKLLIYKASNLHTGVPSRFSGSGSGTTFTLTIDSLQPEDIATYYCQQGQSYWTFGGGTKLEIKR
notes: also called 14H9chim; 14H9-VHwt-FcG4m / 14H9-VLwt-CLhk
The term Kd denotes the concentration at which binding is half-saturated. As a reminder, the koff is the rate constant with which the complex falls apart. Usually kon stands for the rate constant with which the complex forms. One may read the EC50 as the concentration that produces a half-maximal response. Read a high EC50 as a less potent agent. The IC50 is the concentration that inhibits the measured activity by half. Usually EC50 (read off the curve) stands for the concentration needed to bring the measured effect to its halfway point. Low values mean higher potency in that assay, high ones lower potency in that assay. As for B1, in experiment [1], the dissociation constant Kd stood at 15.9 nM, the off-rate constant (koff) was found to be 0.00124 s⁻¹ and the kon stood at 78000 M⁻¹ s⁻¹. Besides, in experiment [2], the “IC50 (read off the curve)” value is ~0.7 µg/mL. In experiment [3], this molecule yielded an EC50 of 0.895 µg/mL. In experiment [4], this molecule gave an IC50 of 3.9 nM. Also, in experiment [5], the “EC50 (read off the curve)” value was ~0.06 µg/mL.
